Experimental data reported in paper PMC8897276.
Like-named read-outs stand apart in the source and are kept apart here.

Experiments:
[1] = target: A2Moo (ovomacroglobulin), the Xenopus laevis egg Alpha-2-Macroglobulin homolog (Xenopus laevis); experiment: cryo-EM structure
[2] = target: A2Moo (ovomacroglobulin), the Xenopus laevis egg Alpha-2-Macroglobulin homolog (Xenopus laevis); experiment: cryo-EM structure; remark: listed apart in the source

A2Moo (ovomacroglobulin), the Xenopus laevis egg Alpha-2-Macroglobulin homolog (from UniProt A0A8J1L4C4 1-1441) (natural protein)
stoichiometry N [1]: 4 | stoichiometry N [2]: 4
